Assay [1] has as its target anti-BCMA scFv P5A2. In words: Biacore (SPR); recombinant H6. (In general: In SPR one partner is held on a chip, and binding of the other changes the refractive index at the surface.)
Assay [2] addresses anti-BCMA CAR clone P5A2 expressed on the cell surface. In words: flow cytometry, SSC against CAR (anti-id) staining, cell line Anti-BCMA CAR clone P5A2, hybridoma-derived H6 at '0.063G' as printed; Q4 prints 74.0. Background: Flow cytometry measures light scatter and fluorescence of single cells or particles in a stream.
Assay [3] shares this target. In words: flow cytometry, anti-id staining on the PE-A axis against APC-A, Anti-BCMA CAR Clone P5A2 cells; Q2 prints 0.42, Q4 33.1, Q1 0.15.
Assay [4] deals with anti-BCMA scFv P5A2. As to the kind of experiment: Biacore (SPR); H6 purified from hybridoma.
The target in assay [5] is anti-BCMA CAR clone P5A2 expressed on the cell surface. In words: flow cytometry, SSC against CAR (anti-id) staining, cell line Anti-BCMA CAR clone P5A2, recombinant H6 at '0.063G' as printed; Q4 prints 72.4.
Chain of anti-BCMA CAR clone P5A2 expressed on the cell surface (chain, as listed by the source limits assumed): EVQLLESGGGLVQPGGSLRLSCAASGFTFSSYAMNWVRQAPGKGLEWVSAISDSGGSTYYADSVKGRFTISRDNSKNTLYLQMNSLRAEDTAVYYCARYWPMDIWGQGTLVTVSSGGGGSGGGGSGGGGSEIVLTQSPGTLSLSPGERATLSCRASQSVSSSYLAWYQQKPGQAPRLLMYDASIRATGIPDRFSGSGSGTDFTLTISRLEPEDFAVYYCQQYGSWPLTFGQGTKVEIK

B1: anti-idiotypic antibody clone E2008.51H1.H6 (H6) (antibody, V domains shown)
VH: QVTLKESGPGILQPSQTLSLTCSFSGFSLNTSAMGVGWIRQPSGKGLEWLAHIWWNDDHYYNPALKSRVTISKDASNNQVFLKIASVVTADTATYYCARSIAPVVPTPFAYWGQGTLVTVSA
VL: DIQMTQSSSSFSVSLGDRVTITCKASEDIYNRLAWFQQKPGNAPRLLISGATRLETGVPSRFSGSGSGKDYTLSITSLQTEDVGTYYCQQYWSSSWTFGGGTKLEIK
For the molecule B1, in the assay with anti-BCMA scFv P5A2 [1], the dissociation constant (Kd) (usually the constant that tells how readily two partners part at equilibrium) was 3.71 nM; the koff (as a rule, the first-order rate constant of dissociation) stood at 0.00705 s⁻¹; the on-rate (kon) (commonly the second-order rate constant of association) came to 1.9e+06 M⁻¹ s⁻¹; the t1/2 was 1.64 min. This molecule yielded a percent of cells in CAR-positive gate Q3 in assay [2] of 26%. In addition, in assay [3], the percent of cells in anti-id-positive quadrant Q3 came to 66.3%. Moreover, in the assay with anti-BCMA scFv P5A2 [4], the Kd was 3.73 nM, the off-rate (koff) worked out at 0.00693 s⁻¹, the kon is 1.86e+06 M⁻¹ s⁻¹ and the t1/2 was found to be 1.67 min. Also, the percent of cells in CAR-positive gate Q3 in assay [5] worked out at 27.6%.

(Values after patent US20240101710A1.)
